Patent publication US8022188B2, “Immunosuppressant binding antibodies and methods of obtaining and using same” (Abbott Laboratories, priority 2006, dated 2011)
Read-outs that look alike come from different tables or passages of the source.

How the values were obtained:
[1] = cited from earlier work
[2] = Kinetic Exclusion Assay (KinExA) affinity determination of IgG; format: binding; details: for Fold Improvement: KD, relative to 1-60-46 WT IgG
Protocol: The equilibrium dissociation constants for both the 1-60-46 AM2 IgG and the 1-60-46 WT mAb IgG produced from the murine hybridoma cell line 1-60-46 were determined using Kinetic Exclusion Assay (KinExA®), available from Sapidyne Instruments (Boise, Id.) (See, Darling and Brault, ASSAY and Drug Development Technologies, 2(6):647-657 (2004)). A constant amount of IgG antibody (AM2 or WT) was incubated with various concentrations (10^−8 M to 10^−13 M) of tacrolimus drug (commercially available from Astellas Pharma, Inc., Tokyo, Japan) and allowed to come to equilibrium (2 hours to 14 hours) before sampling. The amount of free binding sites was determined by injecting the antibody:tacrolimus reaction mixture over bt-tacro immobilized to a solid-phase. Tacrolimus IgG antibody bound to the bt-tacro immobilized to the solid-phase was subsequently detected by injecting goat anti-mouse polyclonal antibody conjugates (GAM) to Cy5 (GAM-Cy5) fluorescent dye. The degree of GAM-Cy5 bound was proportional to the amount of tacrolimus IgG bound to the immobilized bt-tacro and was detected after excitation with the appropriate wavelength. The KD was determined by analyzing the amount of free binding sites versus the amount of antigen present in the reaction sample using software provided by the manufacturer (Sapidyne Instruments; Boise, Id.).

| Molecule | in vivo potency greater than cyclosporine CsA [1] | Fold Improvement ([2]; 10% MeOH) [x] | Fold Improvement ([2]; no MeOH) [x] | improvement in KD relative to the 1-60-46 WT IgG ([2]; physiological diluent) [fold] | Kd ([2]; physiological diluent (PBS pH 7.4, 1% BSA), read-out: KD (no MeOH)) [pM] | improvement in KD relative to the 1-60-46 WT IgG ([2]; selection diluent) [fold] | Kd ([2]; selection diluent (PBS, 1% BSA, 10% methanol), read-out: Kd (10% MeOH)) [pM] |
| --- | --- | --- | --- | --- | --- | --- | --- |
| C=CC[C@@H]1/C=C(\C)C[C@H](C)C[C@H](OC)[C@H]2O[C@@](O)(C(=O)C(=O)N3CCCC[C@H]3C(=O)O[C@H](/C(C)=C/[C@@H]3CC[C@@H](O)[C@H](OC)C3)[C@H](C)[C@@H](O)CC1=O)[C@H](C)C[C@@H]2OC [Tacrolimus] | 50-100 times | – | – | – | – | – | – |
| 1-60-46 AM2 IgG: murine IgG2a/κ containing the H2-1A, L1-1B and L3-A mutations; SEQ ID NO:40 and 42 (antibody, Mouse) heavy: EVELVESGGDLVKPGGSLKLSCAASGFTFSSYGMSWVRQTPDKRLEWVATISSGGAWTFYPDSVKGRFTISRDNAKNTLSLQMSSLKSADTAMYYCSRQTDGYSWFPYWGQGTLVTVSASAKTTAPSVYPLAPVCGDTTGSSVTLGCLVKGYFPEPVTLTWNSGSLSSGVHTFPAVLQSDLYTLSSSVTVTSSTWPSQSITCNVAHPASSTKVDKKIEPRGPTIKPCPPCKCPAPNLLGGPSVFIFPPKIKDVLMISLSPIVTCVVVDVSEDDPDVQISWFVNNVEVHTAQTQTHREDYNSTLRVVSALPIQHQDWMSGKEFKCKVNNKDLPAPIERTISKPKGSVRAPQVYVLPPPEEEMTKKQVTLTCMVTDFMPEDIYVEWTNNGKTELNYKNTEPVLDSDGSYFMYSKLRVEKKNWVERNSYSCSVVHEGLHNHHTTKSFSRTPGK light: DVLMTQTPLSLPVSLGDQASISCKSSQGLVHSTGNTFLEWFLQKPGQSPKLLIYKISNRFSGVPDRFSGSGSGTDFTLKISRVESEDLGVYYCFQGSHAPLTFGAGTKLELKRASADAAPTVSIFPPSSEQLTSGGASVVCFLNNFYPKDINVKWKIDGSERQNGVLNSWTDQDSKDSTYSMSSTLTLTKDEYERHNSYTCEATHKTSTSPIVKSFNRNEC | – | 12 | 16 | 16 | 1.2 | 12 | 13 |
